Test results: EP4480965A1 (Vect-Horus, dated 2024)
Like-named read-outs stand apart in the source and are kept apart here.

Key:
[1] = biological target: murine TfR expressed by murine neuroblastoma Neuro-2a cells (mouse, UniProt Q62351 1-763); assay: cell-based or functional assay
[2] = biological target: T1, human transferrin receptor fused to EGFP, expressed on CHO cells (human, UniProt P02786 1-760); assay: cell-based or functional assay
[3] = biological target: T1, human transferrin receptor fused to …; assay: flow cytometry, CHO-hTfR-EGFP cells
[4] = biological target: T2, mouse transferrin receptor fused to EGFP, expressed on CHO cells (mouse, UniProt Q62351 1-763); assay: flow cytometry, CHO-mTfR-EGFP cells
T2 construct: whole, on cells; also called mTfR; mouse TfR
T2 sequence (Q62351 whole entry, the tested form may be a part): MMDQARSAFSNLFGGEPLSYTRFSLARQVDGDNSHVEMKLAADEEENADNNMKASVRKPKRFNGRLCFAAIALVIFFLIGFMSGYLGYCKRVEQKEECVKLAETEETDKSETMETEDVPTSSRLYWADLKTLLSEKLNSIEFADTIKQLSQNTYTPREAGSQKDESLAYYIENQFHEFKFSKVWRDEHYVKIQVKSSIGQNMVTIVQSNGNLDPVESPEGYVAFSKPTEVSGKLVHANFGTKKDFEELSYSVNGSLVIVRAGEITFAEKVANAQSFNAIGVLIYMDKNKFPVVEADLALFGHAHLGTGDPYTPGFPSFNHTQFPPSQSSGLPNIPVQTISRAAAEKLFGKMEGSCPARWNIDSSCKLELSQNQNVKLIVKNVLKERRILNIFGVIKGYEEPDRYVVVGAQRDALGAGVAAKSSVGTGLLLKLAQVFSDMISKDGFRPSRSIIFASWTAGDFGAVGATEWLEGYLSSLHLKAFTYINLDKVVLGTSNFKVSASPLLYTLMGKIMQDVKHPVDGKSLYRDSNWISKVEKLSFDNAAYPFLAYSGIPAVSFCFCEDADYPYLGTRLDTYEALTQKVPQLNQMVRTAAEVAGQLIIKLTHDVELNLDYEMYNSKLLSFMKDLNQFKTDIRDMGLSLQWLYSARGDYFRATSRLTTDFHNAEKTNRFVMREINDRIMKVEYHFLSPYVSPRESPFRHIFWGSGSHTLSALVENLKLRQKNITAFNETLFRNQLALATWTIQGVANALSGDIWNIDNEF

[5] = biological target: T3, rhesus monkey transferrin receptor fused to EGFP, expressed on CHO cells (rhesus monkey, UniProt H9EXL1 1-760); assay: flow cytometry, CHO-rhTfR-EGFP cells, apparent Kd
T3 construct: also called rhTfR; rhesus monkey TfR; not shown: EGFP fused to the cytoplasmic end of the receptor
T3 sequence (H9EXL1 entry or part of it limits assumed, form in doubt): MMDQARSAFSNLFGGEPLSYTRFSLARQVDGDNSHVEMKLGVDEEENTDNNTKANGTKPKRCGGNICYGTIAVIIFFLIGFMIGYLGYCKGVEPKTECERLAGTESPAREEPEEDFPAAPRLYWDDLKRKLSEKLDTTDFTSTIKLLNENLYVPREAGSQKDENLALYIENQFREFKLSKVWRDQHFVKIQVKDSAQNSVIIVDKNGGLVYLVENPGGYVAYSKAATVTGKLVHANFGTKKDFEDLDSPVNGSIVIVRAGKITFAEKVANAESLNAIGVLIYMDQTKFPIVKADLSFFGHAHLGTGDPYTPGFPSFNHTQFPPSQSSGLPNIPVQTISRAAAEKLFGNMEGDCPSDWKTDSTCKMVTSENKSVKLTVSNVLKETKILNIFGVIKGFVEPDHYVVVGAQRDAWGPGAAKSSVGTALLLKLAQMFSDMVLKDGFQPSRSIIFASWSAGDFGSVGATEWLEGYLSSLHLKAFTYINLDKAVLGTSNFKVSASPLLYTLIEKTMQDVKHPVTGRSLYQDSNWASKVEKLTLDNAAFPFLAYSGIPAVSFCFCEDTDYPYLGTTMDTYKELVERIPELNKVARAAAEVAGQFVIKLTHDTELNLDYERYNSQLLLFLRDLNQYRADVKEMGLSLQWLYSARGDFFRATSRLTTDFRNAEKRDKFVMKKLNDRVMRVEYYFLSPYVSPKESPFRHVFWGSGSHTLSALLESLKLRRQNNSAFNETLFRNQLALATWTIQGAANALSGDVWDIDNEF

[6] = biological target: T1, human transferrin receptor fused to …; assay: flow cytometry, CHO-hTfR-EGFP cells, apparent Kd
[7] = biological target: T2, mouse transferrin receptor fused to …; assay: flow cytometry, CHO-mTfR-EGFP cells, apparent Kd
[8] = biological target: T4, mouse TfR ectodomain fused to a mouse IgG1 Fc fragment (mouse, UniProt Q62351 89-763); assay: SPR (Biacore T200)
T4 construct: extracellular domain; produced in-house; not shown: mouse IgG1 Fc fragment
T4 sequence (Q62351 89-763): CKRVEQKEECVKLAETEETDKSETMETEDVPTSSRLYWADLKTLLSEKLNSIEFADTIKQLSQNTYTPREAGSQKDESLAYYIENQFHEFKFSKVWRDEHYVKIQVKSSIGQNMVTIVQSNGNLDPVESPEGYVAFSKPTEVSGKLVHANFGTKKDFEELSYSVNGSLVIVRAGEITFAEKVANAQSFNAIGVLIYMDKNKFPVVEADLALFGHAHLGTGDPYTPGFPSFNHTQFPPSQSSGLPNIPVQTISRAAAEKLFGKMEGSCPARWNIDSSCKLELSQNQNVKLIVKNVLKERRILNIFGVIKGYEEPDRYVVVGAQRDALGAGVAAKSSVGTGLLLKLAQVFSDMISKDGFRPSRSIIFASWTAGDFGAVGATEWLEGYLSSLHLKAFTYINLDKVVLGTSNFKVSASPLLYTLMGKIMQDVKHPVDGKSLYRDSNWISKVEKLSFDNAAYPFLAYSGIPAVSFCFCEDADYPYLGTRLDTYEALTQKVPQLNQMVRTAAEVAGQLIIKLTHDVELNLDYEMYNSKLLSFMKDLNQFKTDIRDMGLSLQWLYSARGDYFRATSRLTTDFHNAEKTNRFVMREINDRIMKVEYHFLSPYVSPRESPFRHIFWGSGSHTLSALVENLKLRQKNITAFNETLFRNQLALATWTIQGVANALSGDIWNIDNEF

[9] = biological target: T2, mouse transferrin receptor fused to …; assay: flow cytometry, CHO-mTfR-EGFP cells, apparent Kd; remark: listed apart in the source

T1 sequence (P02786 whole entry, the tested form may be a part): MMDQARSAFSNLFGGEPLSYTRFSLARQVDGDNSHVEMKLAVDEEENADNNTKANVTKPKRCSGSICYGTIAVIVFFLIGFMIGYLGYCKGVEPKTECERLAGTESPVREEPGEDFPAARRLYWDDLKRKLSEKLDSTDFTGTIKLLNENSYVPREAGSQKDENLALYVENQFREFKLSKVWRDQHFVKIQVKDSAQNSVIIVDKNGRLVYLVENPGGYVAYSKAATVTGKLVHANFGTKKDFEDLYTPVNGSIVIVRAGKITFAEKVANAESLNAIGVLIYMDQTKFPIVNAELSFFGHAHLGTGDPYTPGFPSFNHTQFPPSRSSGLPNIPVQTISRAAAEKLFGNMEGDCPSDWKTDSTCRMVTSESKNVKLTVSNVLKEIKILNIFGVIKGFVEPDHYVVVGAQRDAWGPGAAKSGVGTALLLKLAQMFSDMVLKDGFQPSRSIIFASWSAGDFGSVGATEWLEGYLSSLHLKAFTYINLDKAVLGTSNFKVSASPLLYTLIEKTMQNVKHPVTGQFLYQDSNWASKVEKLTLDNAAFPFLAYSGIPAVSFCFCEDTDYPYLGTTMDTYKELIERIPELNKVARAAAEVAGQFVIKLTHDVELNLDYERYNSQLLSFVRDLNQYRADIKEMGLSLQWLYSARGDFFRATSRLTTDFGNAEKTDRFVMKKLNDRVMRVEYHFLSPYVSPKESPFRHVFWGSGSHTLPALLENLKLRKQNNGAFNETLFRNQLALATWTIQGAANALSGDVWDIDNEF
Sequence of murine TfR expressed by murine neuroblastoma Neuro-2a cells (Q62351 whole entry, the tested form may be a part): as the sequence (Q62351 whole entry, the tested form may be a part) above

B1: C5-siSOD1m-5'VP (other)
VHH: EVQLVESGGGVVQPGGSLKLSCVASGTDFSINFIRWYRQAPGKQREFVAGFTATGNTNYADSMKGRFTISRDNTKNAVYLQIDSLKPEDTAVYYCYMLDKWGQGTQVTVSSAAAEQKLISEEDLNGAAHHHHHHGS
modifications: siSOD1m-5'VP siRNA (SEQ ID NOs 465/466) linked by a stable linker to the tag
With B1 the “mean IC50 of mSOD1 mRNA downregulation, free uptake on Neuro-2a cells” value [1] was 7.4 nM.

B2: VHH A-siGFPst1 bioconjugate (other)
VHH: EVQLVESGGGVVQPGGSLKLSCVASGTDFSINFIRWYRQAPGKQREFVAGFTATGNTNYADSMKGRFTISRDNTKNAVYLQIDSLKPEDTAVYYCYMLDKWGQGTQVTVSSAAAEQKLISEEDLNGAAHHHHHHGS
modifications: siGFPst1 siRNA (3' end of sense strand, DBCO) clicked to 3-azido-1-propanamine on the Gln of the C-terminal Q-tag
In the case of B2, the “IC50 of the reduction of GFP protein levels, 6-hour pulse and chase to 120 hrs” value [2] is reported as 1.24 nM and the “IC50 of the reduction of GFP protein levels, free uptake 120 hrs” value [2] is reported as 2.73 nM.

B3: VHH A6 (C5^V6) (VHH)
VHH: EVQLVESGGGVVQPGGSLKLSCVASGTDFSINFIRWYRQAPGKQREFVAGFTATGNTNYADSMKGRFTISRDNTKNAVYLQIDSLKPEDTAVYYCYALDKWGQGTQVTVSS
B3: binds [3]; binds [4].

B4: B8^V9 (VHH)
VHH: EVQLVESGGGVVQPGGSLRLSCAASGEIFSINFMRWYRQAPGKQREWVAGFTRDGSKNYPDSAKGRFTISRDNAKNTVYLQIDSLKPEDTAVYYCYMLDTWGQGTQVTVSS
B4 showed a Kd [5] of 24 nM.

B5: E9 (VHH)
VHH: EVQLVESGGGLVQPGGSLRLSCVSSATFGGYSMGWFRQAPGKEREFVAAITWNGGIIKDYADGVMGRFTISRNSALNTVYLQMDSLKSTDTGVYVCAGDRTYYAGGYVPTSEREYAFWGQGTQVTVSS
Work on B5 yielded a Kd [6] of 1290 nM, a Kd [5] of 1540 nM and a Kd [7] of 1310 nM.

B6: VHH A17 (C5^V17) (VHH)
VHH: EVQLVESGGGVVQPGGSLKLSCVASGTDFSINFIRWYRQAPGKQREFVAGFTATGNTNYADSMKGRFTISRDNTKNAVYLQIDSLKPEDTAVYYCYMIDKWGQGTQVTVSS
B6: binds [3]; binds [4].

B7: VHH A19 (C5^V19) (VHH)
VHH: EVQLVESGGGVVQPGGSLKLSCVASGTDFSINFIRWYRQAPGKQREFVAGFTATGNTNYADSMKGRFTISRDNTKNAVYLQIDSLKPEDTAVYYCYMLEKWGQGTQVTVSS
B7: binds [4].

B8: VHH D (H3) (VHH)
VHH: EVQLVESGGGEVQPGGSLKLSCVASGTDFSINFVRWYRQRPGKQREWVAGFTANGDTNYPDSMKGRFTISRDNAKNTVYLQINSLKSEDTAVYYCYMLDNWGQGTQVTVSS
Work on B8 yielded a kon [8] of 5.81e+06 M⁻¹ s⁻¹.

B9: 13C3-LC-VHH A (bispecific antibody)
heavy: QVQLQQSGPELVRPGVSVKISCKGSGYTFTDYAMHWVKQSHAKSLEWIGVISTKYGKTNYNQKFKGKATMTVDKSSSTAYMELARLTSEDSAIYYCARGDDGYSWGQGTSVTVSSAKTTPPSVYPLAPGSAAQTNSMVTLGCLVKGYFPEPVTVTWNSGSLSSGVHTFPAVLQSDLYTLSSSVTVPSSTWPSETVTCNVAHPASSTKVDKKIVPRDCGCKPCICTVPEVSSVFIFPPKPKDVLTITLTPKVTCVVVDISKDDPEVQFSWFVDDVEVHTAQTQPREEQFNSTFRSVSELPIMHQDWLNGKEFKCRVNSAAFPAPIEKTISKTKGRPKAPQVYTIPPPKEQMAKDKVSLTCMITDFFPEDITVEWQWNGQPAENYKNTQPIMDTDGSYFVYSKLNVQKSNWEAGNTFTCSVLHEGLHNHHTEKSLSHSPG
light: DVVMTQTPLSLPVSLGDQASISCRSGQSLVHSNGNTYLHWYLQKPGQSPKLLIYTVSNRFSGVPDRFSGSGSGSDFTLKISRVEAEDLGVYFCSQNTFVPWTFGGGTKLEIKRADAAPTVSIFPPSSEQLTSGGASVVCFLNNFYPKDINVKWKIDGSERQNGVLNSWTDQDSKDSTYSMSSTLTLTKDEYERHNSYTCEATHKTSTSPIVKSFNRNECSGSGGGGGMAEVQLVESGGGVVQPGGSLKLSCVASGTDFSINFIRWYRQAPGKQREFVAGFTATGNTNYADSMKGRFTISRDNTKNAVYLQIDSLKPEDTAVYYCYMLDKWGQGTQVTVSSAAA
With B9 the Kd [9] was 106 nM.
